Test results: publication PMC8930772, “Seipin forms a flexible cage at lipid droplet formation sites” (Nature Structural & Molecular Biology, 2022)

B1: yeast seipin Sei1 with C-terminal 3xFLAG-TEV-2xProteinA tag, purified from strain HAY60 (natural protein, S. cerevisiae, UniProt Q06058 1-285, looked up)
chain: MKINVSRPLQFLQWSSYIVVAFLIQLLIILPLSILIYHDFYLRLLPADSSNVVPLNTFNILNGVQFGTKFFQSIKSIPVGTDLPQTIDNGLSQLIPMRDNMEYKLDLNLQLYCQSKTDHLNLDNLLIDVYRGPGPLLGAPGGSNSKDEKIFHTSRPIVCLALTDSMSPQEIEQLGPSRLDVYDEEWLNTIRIEDKISLESSYETISVFLKTEIAQRNLIIHPESGIKFRMNFEQGLRNLMLRKRFLSYIIGISIFHCIICVLFFITGCTAFIFVRKGQEKSKKHS
notes: seipin Sei1 (Fld1), S. cerevisiae; tagged at the endogenous locus; The 2xProteinA part held the protein on IgG Sepharose and was cut off with TEV protease before SEC and cryo-EM; The deposited model holds residues 17-264 without 134-147; also called Fld1; source: S. cerevisiae strain HAY60, overproduced from the GAL1 promoter at the endogenous locus; purified (IgG Sepharose, TEV cleavage, …)
B2: seipin lumenal domain WT(47-235) with C-terminal 6xHis (domain or fragment, S. cerevisiae, UniProt Q06058 47-235, looked up)
chain: ADSSNVVPLNTFNILNGVQFGTKFFQSIKSIPVGTDLPQTIDNGLSQLIPMRDNMEYKLDLNLQLYCQSKTDHLNLDNLLIDVYRGPGPLLGAPGGSNSKDEKIFHTSRPIVCLALTDSMSPQEIEQLGPSRLDVYDEEWLNTIRIEDKISLESSYETISVFLKTEIAQRNLIIHPESGIKFRMNFEQG
notes: seipin Sei1, S. cerevisiae, lumenal domain lacking the TM segments, residues 47-235; also called WT lumenal domain; source: E. coli SHuffle T7 Express, purified (Ni-NTA), isolated in the absence of detergent; copies: 10

What was measured:
[1] = target: the molecule itself; experiment: cryo-EM structure; purified Sei1-Ldb16 complex reconstituted in amphipol PmalC8, about 3.5 mg/ml; negative stain and cryo-EM; C10 then C5 symmetry
[2] = target: the molecule itself; experiment: negative-stain EM; WT lumenal domain oligomers from the SEC, 2D class averages

Protein	stoichiometry N [1]	stoichiometry N [2]
B1	10	–
B2	–	10
